The text below walks through data of patent US20170022287A1.

Test [1] has as its target CRD1-3. Briefly: ELISA, coated CD137-Fc protein 2 µg/mL, antibody 10 or 5 µg/mL; absorbance 620 nm divided by that of the uncoated well.
For test [2], the target named is CRD1-3. The test is described as follows: ELISA, coated CD137-Fc protein 2 µg/mL, antibody 10 or 5 µg/mL, absorbance 620 nm; Non (uncoated well) 0.065.
Test [3] deals with CRD3-4. Briefly: ELISA, coated CD137-Fc protein 2 µg/mL, antibody 10 or 5 µg/mL, absorbance 620 nm; Non (uncoated well) 1.146.
Test [4] has as its target CRD1. The description is as above.
Test [5] deals with CRD2-4. Described as above.
Test [6] has as its target CRD1-2. The test is described as above.
In test [7] the target is CRD1-3. The description is as above.
Test [8] has as its target CRD2-3. The test is described as above.
Test [9] has as its target CRD3-4. Briefly: ELISA, coated CD137-Fc protein 2 µg/mL, antibody 10 or 5 µg/mL; absorbance 620 nm divided by that of the uncoated well.
For test [10], the target named is CRD1. The description is as above.
Test [11] concerns the target CRD2-4. The test is described as above.
Test [12] concerns the target CRD1-2. The description is as above.
Test [13] deals with CRD2-3. The description is as above.
In test [14] the target is CRD3-4. Briefly: ELISA, coated CD137-Fc protein 2 µg/mL, antibody 10 or 5 µg/mL, absorbance 620 nm; Non (uncoated well) 2.0265.
The target in test [15] is CRD1. The description is as above.
In test [16] the target is CRD2-4. The test is described as above.
Test [17] has as its target CRD1-2. The test is described as above.
For test [18], the target named is CRD1-3. Described as above.
For test [19], the target named is CRD2-3. The description is as above.
The target in test [20] is CRD3-4. The test is described as follows: ELISA, coated CD137-Fc protein 2 µg/mL, antibody 10 or 5 µg/mL, absorbance 620 nm; Non (uncoated well) 2.2055.
For test [21], the target named is CRD1. Described as above.
For test [22], the target named is CRD2-4. Described as above.
The target in test [23] is CRD1-2. The description is as above.
Test [24] deals with CRD1-3. The test is described as above.
Test [25] has as its target CRD2-3. Described as above.
The target of test [26] is full-length human CD137-Fc fusion protein (human). The test is described as follows: ELISA, coated CD137-Fc protein 2 µg/mL, antibody 10 or 5 µg/mL; absorbance 620 nm divided by that of the uncoated well.
Test [27] has as its target CRD3-4. Briefly: ELISA, coated CD137-Fc protein 2 µg/mL, antibody 10 or 5 µg/mL, absorbance 620 nm; Non (uncoated well) 1.114.
Test [28] concerns the target full-length human CD137-Fc fusion protein (human). The test is described as above.
In test [29] the target is CRD2-4. Described as above.
The target in test [30] is CRD1-3. The description is as above.
Test [31] has as its target CRD2-3. The test is described as above.
In test [32] the target is full-length human CD137-Fc fusion protein (human). Briefly: ELISA, coated CD137-Fc protein 2 µg/mL, antibody 10 or 5 µg/mL, absorbance 620 nm; Non (uncoated well) 0.202.

CRD1-2, sequence (chain, as listed by the source limits assumed): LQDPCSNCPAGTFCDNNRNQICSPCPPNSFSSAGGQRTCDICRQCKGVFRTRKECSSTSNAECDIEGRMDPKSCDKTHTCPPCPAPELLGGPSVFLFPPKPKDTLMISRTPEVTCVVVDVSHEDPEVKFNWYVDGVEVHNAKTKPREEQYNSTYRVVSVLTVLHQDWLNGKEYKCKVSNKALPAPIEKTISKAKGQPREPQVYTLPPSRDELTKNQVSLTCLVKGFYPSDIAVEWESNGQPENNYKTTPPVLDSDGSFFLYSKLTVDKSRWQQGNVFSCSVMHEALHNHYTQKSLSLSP
CRD1, sequence (chain, as listed by the source limits assumed): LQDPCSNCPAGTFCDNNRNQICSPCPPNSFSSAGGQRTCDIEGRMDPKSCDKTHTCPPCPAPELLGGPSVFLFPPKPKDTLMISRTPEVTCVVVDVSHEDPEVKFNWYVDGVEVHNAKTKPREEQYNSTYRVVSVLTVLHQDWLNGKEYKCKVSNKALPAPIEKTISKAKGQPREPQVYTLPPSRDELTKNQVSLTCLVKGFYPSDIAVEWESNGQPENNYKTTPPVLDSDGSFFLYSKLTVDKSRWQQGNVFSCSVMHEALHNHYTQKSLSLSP
full-length human CD137-Fc fusion protein (human), sequence (chain, as listed by the source limits assumed): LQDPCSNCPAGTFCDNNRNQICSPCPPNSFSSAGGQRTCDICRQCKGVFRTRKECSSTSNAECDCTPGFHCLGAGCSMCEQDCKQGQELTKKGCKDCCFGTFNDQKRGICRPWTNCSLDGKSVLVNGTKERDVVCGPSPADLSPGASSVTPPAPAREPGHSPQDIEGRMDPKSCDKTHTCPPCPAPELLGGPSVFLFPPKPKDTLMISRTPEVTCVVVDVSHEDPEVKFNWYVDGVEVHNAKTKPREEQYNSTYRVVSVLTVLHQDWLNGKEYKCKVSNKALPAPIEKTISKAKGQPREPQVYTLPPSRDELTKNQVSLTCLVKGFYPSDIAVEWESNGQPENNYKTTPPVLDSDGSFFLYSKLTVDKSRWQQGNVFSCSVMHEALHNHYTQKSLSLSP
CRD1-3, sequence (chain, as listed by the source limits assumed): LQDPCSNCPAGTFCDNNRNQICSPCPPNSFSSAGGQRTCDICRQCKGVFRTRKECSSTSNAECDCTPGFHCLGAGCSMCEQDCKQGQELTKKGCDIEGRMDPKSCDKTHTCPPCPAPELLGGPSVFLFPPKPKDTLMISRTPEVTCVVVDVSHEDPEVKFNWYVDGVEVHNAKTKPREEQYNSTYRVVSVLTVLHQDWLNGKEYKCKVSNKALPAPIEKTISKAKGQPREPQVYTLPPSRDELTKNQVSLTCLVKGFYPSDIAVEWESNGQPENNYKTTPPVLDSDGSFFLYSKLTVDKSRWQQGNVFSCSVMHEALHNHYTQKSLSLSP
CRD2-3, sequence (chain, as listed by the source limits assumed): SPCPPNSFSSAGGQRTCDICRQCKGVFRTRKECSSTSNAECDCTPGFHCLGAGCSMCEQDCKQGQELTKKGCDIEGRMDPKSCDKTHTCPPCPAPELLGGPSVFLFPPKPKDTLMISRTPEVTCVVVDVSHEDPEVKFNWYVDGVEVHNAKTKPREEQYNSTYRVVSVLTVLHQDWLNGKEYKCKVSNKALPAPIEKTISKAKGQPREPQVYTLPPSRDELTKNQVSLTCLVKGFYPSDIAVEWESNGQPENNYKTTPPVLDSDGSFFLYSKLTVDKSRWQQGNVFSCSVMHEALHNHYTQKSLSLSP
CRD2-4, sequence (chain, as listed by the source limits assumed): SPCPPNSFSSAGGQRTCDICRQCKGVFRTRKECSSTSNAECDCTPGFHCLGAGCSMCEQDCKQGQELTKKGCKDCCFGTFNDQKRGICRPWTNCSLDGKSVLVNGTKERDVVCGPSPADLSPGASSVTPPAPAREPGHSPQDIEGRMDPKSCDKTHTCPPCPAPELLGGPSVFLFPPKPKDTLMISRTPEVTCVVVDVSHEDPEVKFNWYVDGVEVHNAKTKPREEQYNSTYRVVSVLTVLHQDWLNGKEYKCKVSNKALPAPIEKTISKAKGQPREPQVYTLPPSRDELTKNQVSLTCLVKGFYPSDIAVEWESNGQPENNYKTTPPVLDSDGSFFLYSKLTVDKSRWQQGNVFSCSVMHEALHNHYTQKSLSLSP
CRD3-4, sequence (chain, as listed by the source limits assumed): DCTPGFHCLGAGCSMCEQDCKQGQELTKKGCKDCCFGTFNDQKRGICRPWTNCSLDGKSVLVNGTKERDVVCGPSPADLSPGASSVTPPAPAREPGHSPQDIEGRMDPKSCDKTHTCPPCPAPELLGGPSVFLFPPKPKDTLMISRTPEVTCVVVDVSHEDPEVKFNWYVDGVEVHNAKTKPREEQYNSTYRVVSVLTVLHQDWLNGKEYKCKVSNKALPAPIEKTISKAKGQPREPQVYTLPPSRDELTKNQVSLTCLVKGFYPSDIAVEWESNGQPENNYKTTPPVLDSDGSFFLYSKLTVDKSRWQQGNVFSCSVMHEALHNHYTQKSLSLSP

B1: R1 (antibody, V domains shown)
VH: EVQLVQSGAEVKKPGASVKVSCKASGYTFTSYYTHWVRQAPGQGLEWMGIINPSGGSTSYAQKFQGRVTMTRDTSTSTVYMELSSLRSEDTAVYYCARGAPEYSSSSDYWGQGTMVTVSS
VL: QSALTQPASVSGSPGQSITISCTGTSSDVGGYNYVSWYQQHPGKAPKLMIYDVSNRPSGVSNRFSGSKSGNTASLTISGLQAEDEADYYCSSYTSSSTRWVFGGGTKLTVL
With B1, in the test with CRD1-3 [1], the Ratio with respect to Non-Coating amounted to 7.3. For the same molecule, the ELISA color development level in the test with CRD1-3 [2] was determined as 0.473.

B2: R13 (antibody, V domains shown)
VH: QVQLVESGGGLVQPGGSLRLSCAASGFTFSYYDIQWVRQAPGKGLEWVSSISPSGQSTYYRREVKGRFTISRDNSKNTLYLQMNSLRAEDTAVYYCARRTGREYGGGWYFDYWGQGTLVTVSS
VL: DIQMTQSPSSLSASVGDRVTITCRASQSISSYLNWYQQKPGKAPKLLIYAASSLQSGVPSRFSGSGSGTDFTLTISSLQPEDFATYYCQQFSRFPLTFGGGTKVEIK
For B2, the ELISA color development level was determined as 0.26 in the test with CRD3-4 [3]; 0.601 in the test with CRD1 [4]; 0.455 with CRD2-4 [5]; 0.45 with CRD1-2 [6]; 0.787 with CRD1-3 [7]; 0.555 with CRD2-3 [8]. In addition, the Ratio with respect to Non-Coating with CRD3-4 [9] was 0.2; in the test with CRD1 [10], 0.5; with CRD2-4 [11], 0.4; with CRD1-2 [12], 0.4; in the test with CRD1-3 [1], 0.7; with CRD2-3 [13] it was 0.5.

B3: R11 (antibody, V domains shown)
VH: QVQLLESGGGLVQPGGSLRLSCAASGFTFSSYAMSWVRQAPGKGLEWVSAISGSGGSTYYADSVKGRFTISRDNSKNTLYLQMNSLRAEDTAVYYCARDKWYYYPALDYWGQGTLVTVSS
VL: DIQMTQSPSSLSASVGDRVTITCRASQSISSYLNWYQQKPGKAPKLLIYAASSLQSGVPSRFSGSGSGTDFTLTISSLQPEDFATYYCQQFSRFPLTFGGGTKVEIK
In the case of B3, the Ratio with respect to Non-Coating with CRD3-4 [9] was 1.4; in the test with CRD1 [10], 0.9; with CRD2-4 [11], 1.1; in the test with CRD1-2 [12], 0.8; with CRD1-3 [1] it was 1.2; with CRD2-3 [13], 1.3. Moreover, the ELISA color development level with CRD3-4 [14] was found to be 2.88; in the test with CRD1 [15] it was 1.82; with CRD2-4 [16] it was 2.3; in the test with CRD1-2 [17] it was 1.69; in the test with CRD1-3 [18], 2.45; with CRD2-3 [19], 2.73.

B4: R14 (antibody, V domains shown)
VH: QVQLLESGGGLVQPGGSLRLSCAASGFTFSSYAMSWVRQAPGKGLEWVSAISGSGGSTYYADSVKGRFTISRDNSKNTLYLQMNSLRAEDTAVYYCARDKWYYYPALDYWGQGTLVTVSS
VL: DIQMTQSPSSLSASVGDRVTITCRASQSISSYLNWYQQKPGKAPKLLIYAASSLQSGVPSRFSGSGSGTDFTLTISSLQPEDFATYYCLQVYRSPLTFGGGTKVEIK
As for B4, the ELISA color development level with CRD3-4 [20] was found to be 2.76; with CRD1 [21] it was 1.64; in the test with CRD2-4 [22], 2.21; with CRD1-2 [23], 1.7; with CRD1-3 [24] it was 2.42; with CRD2-3 [25], 2.72. Moreover, the Ratio with respect to Non-Coating with CRD3-4 [9] is 1.3; in the test with CRD1 [10], 0.7; with CRD2-4 [11], 1; with CRD1-2 [12], 0.8; with CRD1-3 [1] it was 1.1; in the test with CRD2-3 [13] it was 1.2.

B5: R8 (antibody, V domains shown)
VH: QVQLQESGPGLVKPSETLSLTCAVSGYSISSGYYWGWIRQPPGKGLEWIGSIYHSGSTYYNPSLKSRVTISVDTSKNQFSLKLSSVTAADTAVYYCARQHSFTRYYGYYYFDYWGQGTTVTVSS
VL: DIQMTQSPSSLSASVGDRVTITCRASQSISSYLNWYQQKPGKAPKLLIYAASSLQSGVPSRFSGSGSGTDFTLTISSLQPEDFATYYCLQSDSIPLTFGGGTKVEIK
B5: the Ratio with respect to Non-Coating in the test with CRD3-4 [9] worked out at 2.3; in test [26], 1.9; in the test with CRD2-4 [11], 2; in the test with CRD1-3 [1], 2; with CRD2-3 [13], 2.2. Besides, the ELISA color development level with CRD3-4 [27] stood at 2.52; in test [28], 2.09; in the test with CRD2-4 [29], 2.23; in the test with CRD1-3 [30] it was 2.25; with CRD2-3 [31] it was 2.42.

B6: R2 (antibody, V domains shown)
VH: EVQLQESGPGLVKPSETLSLTCTVSGGSISSSSYYWGWIRQPPGKGLEWIGSIHYTGSTYYNPSLKSRVTISVDTSKNQFSLKLSSVTAADTAVYYCARLNPSIAARPGAFDIWGQGTMVTVSS
VL: QSVLTQPPSVSAAPGQKVTISCSGSSSNIANNFVSWFQQLPGTAPKLLIYDNNKRPSGIPDRFSGSKSGTSATLGITGLQTGDEADYYCGTWDRSLSAGVFGGGTKVTVL
For B6, the Ratio with respect to Non-Coating in test [26] was 1. Besides, the ELISA color development level in test [32] turned out to be 0.205.
